According to paper PMC7042235:

Target: microtubules (polymerized porcine tubulin) (porcine) (UniProt P02550)
Test: co-sedimentation; purified MTBDs (1-32 uM) mixed with 5 uM paclitaxel-stabilised porcine MTs; 100 mM PIPES pH 6.8, 50 mM NaCl, 2 mM MgCl2, 1 mM EGTA; 210,000 x g, 25 °C, 10 min; pellets on SDS-PAGE, densitometry, one-site curve fitting

MTBD-High, MTBD(I3101C/V3222C) (from UniProt P36022 3096-3232) (domain or fragment)
Kd: 4.8 µM
